Patent publication US20210371503A1 (UNIVERSITY OF COLOGNE, published 2021)

B1: CnC2t1p1_B4 (antibody, V domains shown)
VH: QVQLVQSGAEVKKPGASVKVSCKASGYTFTSYGISWVRQAPGQGLEWMGWISAYNGNTNYAQKLQGRVTMTTDTSTSTAYMELRSLRSDDTAVYYCARDGELLGWFDPWGQGTLVTVSS
VL: QSALTQPASVSGSPGQSITISCTGTSSDVGSYNLVSWYQQHPGKAPKLMIYEGSKRPSGVSNRFSGSKSGNTASLTISGLQAEDEADYYCCSYAGSSTWVFGGGTKLTVL
B2: CnC2t1p1_E8 (antibody, V domains shown)
VH: QVQLVQSGAEVKNPGASVKVSCKASGYIFTNYYIHWVRQAPGQGLEWVGWIHSLSGGTSYAQKFQGRVTLTRDASIRTAYMELSRLGSDDTALYYCARASVSTITDFDYWGQGTLVAVSS
VL: QSALTQPASVSGSPGQSITISCTGTSGDVGSYNLVSWYQQHPGKAPKLVIYEATKRPSGVSNRFFASKSGNTASLTISGLQAEDEADYYCCSYAGVRTVVFGGGTKLTVL
B3: CnC2t1p1_G6 (antibody, V domains shown)
VH: QVQLVQSGAEVKKPGASVKVSCKASGYIFTNYYIHWVRQAPGQGLEWVGWIHSLSGGTSYAQKFQGRVTLTRDAPIRTAYMELSGLGSDDTAVYYCARASVATITDFDYWGQGTLVAVSS
VL: QSALTQPASVSGSPGQSITISCTGTSGDIGSYNLVSWYQQYPGKAPKLIIYEASKRPSGVSNRFFASKSGNTASLTISGLQAEDEADYYCCSYAGVRTVVFGGGTKLTVL
B4: CnC2t1p1_D6 (antibody, V domains shown)
VH: EVQLVESGGGLVQPGRSLRLSCTASGFTFGDYAMSWFRQAPGKGLEWVGFIRSKAYGGTTEYAASVKGRFTISRDDSKSIAYLQMNSLKTEDTAVYYCTRVRRLWFGSYYYGMDVWGQGTTVTVSS
VL: not shown
B5: CnC2t1p1_E12 (antibody, V domains shown)
VH: EVQLVESGGGLVQPGRSLRLSCTASGFTFGDYAMSWFRQAPGKGLEWVGFIRSKAYGGTTEYAASVKGRFTISRDDSKSIVYLQMNSLKTEDTAVYYCTRVRRLWFGSYYYGMDVWGQGTTVTVSS
VL: not shown
B6: FnC1t2p1_D4 (antibody, V domains shown)
VH: QVQLVQSGSELKKPGASVKVSCKASGYTFLRFAMNWLRQAPGQGLEWMGWIDTNTGTPTYAQGFTGRFVFSLDTSVSTAYLQISSLKAEDTAVYYCARSLRGANLVPWGQGTLVTVSS
VL: DIQMTQSPSSLSASVGDRVTITCQASQDVSNYLNWYQQQPGKAPKLLIYDAFNLETGVPSRFSGSGSGTDFTFTISSLQPEDIATYYCQQYDNLPLTFGGGTKVEIK
B7: CnC2t1p1_B10 (antibody, V domains shown)
VH: QVQLVQSGAEVKKPGSSVKVSCKASGGTFSSYAISWVRQAPGQGLEWMGGIIPIFGTANYAQKFQGRVTITADKSTSTAYMELSSLRSEDTAVYYCARVSGYDSSGYWGDYWGQGTLVTVSS
VL: EIVLTQSPATLSLSPGERATLSCRASQSVSSYLAWYQQKPGQAPRLLIYDASNRATGIPARFSGSGSGTDFTLTISSLEPEDFAVYYCQQRSNWPPALTFGGGTKVEIK
B8: FnC1t1p2_A5 (antibody, V domains shown)
VH: QVQLVQSGAEVKKPGASVKVSCKASGYTFTSYDINWVRQATGQGLEWMGWMNPNSGNTGYAQKFQGRVTMTRNTSISTAYMELSSLRSEDTAVYYCARATTDCSSTSCWSLDFWSGYYTGGREKIFDYWGQGTLVTVSS
VL: not shown
B9: HbnC4t1p1_D5 (antibody, V domains shown)
VH: EVQLVESGGGLVQPGRSLRLSCAASGFTFDDYAMHWVRQAPGKGLEWVSGISWNSGSIGYADSVKGRFTISRDNAKNSLYLQMNSLRAEDTGLYYCAKDINYDSGGYHKNYFDYWGQGTLVTVSS
VL: DIQMTQSPSSLSASVGDRATITCRASQSISSYLNWYQEKPGKAPKLLIYAASSLQSGVPSRFSGSGSGTDFTLTISSLQPEDFATYYCQQSYSNPLTFGGGTKVEIK
B10: HbnC3t1p1_C6 (antibody, V domains shown)
VH: QMQLVQSGPEVKKPGTSVKVSCKASGFTFTSSAVQWVRQARGQRLEWIGWIVVGSGNTNYAQKFQERVTITRDMSTSTAYMELSSLRSEDTAVYYCAAPHCSSTICYDGFDIWGQGTMVTVSS
VL: not shown
B11: HbnC3t1p2_C6 (antibody, V domains shown)
VH: QMQLVQSGPEVKKPGTSVKVSCKASGFTFSSSAVQWVRQARGQRLEWIGWIVVGSGNTNYAQKFQGRVTITRDMSTRTAYMELSSLRSEDTAMYYCAAPYCSSTRCYDAFDIWGQGTMVTVSS
VL: not shown
B12: FnC1t2p1_G5 (antibody, V domains shown)
VH: QVQLVQSGSELKKPGASVKVSCKASGYTFLRFAMNWLRQAPGQGLEWMGWIDTNTGTPTYAQGFTGRFVFSLDTSVSTAYLQISSLKAEDTAVYYCARSLRGANLVPWGQGTLVTVSS
VL: DIQMTQSPSSLSASVGDRVTITCQASQDVSNYLNWYQQQPGKAPKLLIYDAFNLETGVPSRFSGSGSGTDFTFTISSLQPEDIATYYCQQYDNLPLTFGGGTKVEIK
B13: HbnC3t1p1_G4 (antibody, V domains shown)
VH: EVQLVESGGGLVQPGGSLRLSCAASGFTVSSNYMSWVRQAPGKGLEWVSVIYSGGSTFYADSVKGRFTISRDNSKNTLYLQMNSLRAEDTAVYYCARDFGDFFFDYWGQGTLVTVSS
VL: EIVLTQSPGTLSLSPGERATLSCRASQSVSSYLAWYQQKPGQAPRLLIYGVSSRATGIPDRFSGSGSGTDFTLTISRLEPEDFAVYYCQQYGSSPRTFGQGTKVEIK
B14: HbnC3t1p2_B10 (antibody, V domains shown)
VH: EVQLVESGGGLVQPGGSLRLSCAASGFIVSSNYMSWVRQAPGKGLEWVSVIYSGGSTFYADSVKGRFTISRDNSKNTLYLQMNSLRAEDTAVYYCARDYGDYFFDYWGQGTLVTVSS
VL: EIVLTQSPGTLSLSPGERATLSCRASQSVSSYLAWYQQKPGQAPRLLISGASSRAAGIPDRFSGSGSGTDFTLTINRLEPEDFAVYYCQQYGSSPRTFGQGTKLEIK
B15: HbnC3t1p1_F4 (antibody, V domains shown)
VH: QVQLVESGGGVVQPGRSLRLSCAATGFTFRRYGMHWVRQAPGKGLEWVAGILFDGSNKYYVDSVKGRFTISRDSSRNTLYLQLNSLRREDTAVYYCAKGGDYEWELLESWGQGTLVTVSS
VL: DIQMTQSPSTVSASVGDRVTITCRASQSIDNWLAWYQEKPGKAPKVLIYKASSLESGVPSRFSGRGSGTEFTLTISSLQPGDFATYYCQHYHSFPLTFGGGTKVDIK
B16: HbnC2t1p2_D9 (antibody, V domains shown)
VH: QVQLVESGGGVVQPGRSLRLSCAASGFTFSSYGMHWVRQAPGKGLEWVAVIWYDGRNKYYVDSVKGRFTISRDNSKNTLYLQISSLRAEDTAVYYCARAARRPVVTDTMAYYMDVWGKGTTVTVSS
VL: EIVLTQSPATLSLSPGERATLSCRASLSLSSYLAWYQQKPGQAPRLLIYDASNRATGIPARFSGSGSGTDFTLTISSLEPEDFAVYYCQQRSNWPPTWTFGQGTKAEIKR
B17: MnC1t3p1_G9 (antibody, V domains shown)
VH: EVQLLESGGGLVQPGGSLRLSCAASGFTFRNYAMTWVRQAPGKGLEWVSGISDSGDRTYNADSVKGRFSISRDNSKNTLHLQMNSLRAEDTAVYYCALASGSYFGGANYWGQGTLVTVSS
VL: QAVVTQEPSLTVSPGGTVTLTCGSSTGPVTSDHYPYWFQQKPGQAPTTLIYDTNNKHSWTPARFSGSLLGGKAALTLSGAQPEDEAEYYCLLSYTGARVFGGGTKLTVL
B18: MnC2t2p1_C11 (antibody, V domains shown)
VH: QVQLVQSGAEVKKPGSSVKVSCKASGGTFSRYTIIWVRQAPGQGLEWMGRIIPILDIANYAQKFQGRVTITADKSTSTAYMELSSLRSEDTAVYYCAREGGLDYFGSRNSGWTYTWFDPWGQGTLVTVSS
VL: DIQMTQSPSSLSASVGDRVTITCRASQNISSYLNWYQQKPGKAPNLLIYAASSLQSGVPPRFSGSGSGTDFTLTISSLQPEDFATYYCQQSYSTLYSFGQGTKLEIK
B19: MnC4t1p1_A11 (antibody, V domains shown)
VH: EVQLVESGGGLVQPGGSLRLSCAASGFTFSSYSMNWVRQAPGKGLEWVSYISSSSNTRYYTDSVMGRFTISRDNAKNSLFLQMNSLRAEDTAVYYCASSKGFCSGGSCSDYWGQGTLVTVSS
VL: EIVLTQSPGTLSLSPGERATLSCRASQSVSSSYLAWYQQKPGQAPRLLIYGVSSRATGIPDRFSGSGSGTDFTLTISRLEPEDFVVYYCHQYGSSPWTFGQGTKVEIK
B20: MnC4t2p1_B3 (antibody, V domains shown)
VH: EVQLVESGGHLVQPGRSLRLSCAASGFTFDDYAMHWVRQVPGKGLEWVSGISWNGGILDYADSVKGRFTISRDNAKNSLYLHMRSLRTDDTALYYCAKDLRRQDYYADWYFDLWGRGTLVTVSS
VL: DIQMIQSPSSVSASVGDRVTITCRASQGISSWLAWYQQKPGKAPKLLIYAASTLLSAVPSRFSGSGSGTDFTLTISSLQPEDFATYYCQQGNSFPFTFGPGTIVDV
B21: MnC2t1p1_A3 (antibody, V domains shown)
VH: EVQLVESGGGLVQPGGSLRLSCAASGFTVSSNYMSWVRQAPGRGLEWVSVIYSGGSTFYADSVKGRFTISRDNSKNTLYLQMNSLRPEDTAVYYCATGARFGESPFDYWGQGTLVTVSS
VL: DIQMTQSPSSVSASVGDRVTITCRASQGISSWLAWYQQKPGKAPKLLIYAASSLQSGVPSRFSGSGSGTDFTLTISSLQPEDFATYYCQQANSFPGTFGQGTKVEIK
B22: MnC2t1p1_C5 (antibody, V domains shown)
VH: EVQLVESGGGLVQPGGSLRLSCAASGFTVSSNYMSWVRQAPGKGLEWVSVIYSGGSTYYADSVKGRFTISRDNSKNTLYLQMNSLRAEDTAVYYCATGARFGESPFDYWGQGTLVTVSS
VL: DIQMTQSPSSVSASVGDRVTITCRASQGISSWLAWYQQKPGKAPKLLIYAASSLQSGVPSRFSGSGSGTDFTLTISSLQPEDFATYYCQQANSFPGTFGQGTKVEIK

Each binder was assayed against T1, prefusion stabilized SARS-CoV-2 S ectodomain (SARS-CoV-2, UniProt P0DTC2 14-1208) (assay: ELISA, coated S ectodomain).
T1 construct: also called SARS-CoV-2 spike ectodomain; ectodomain of the spike (S) homotrimer of SARS-CoV-2
B1 was tested, and the EC50 was 0.03 µg/mL.
Binder B2 has an EC50 of 0.13 µg/mL.
Binder B3 has an EC50 of 0.31 µg/mL.
Work on B4 yielded an EC50 of 0.03 µg/mL.
In the case of B5, the EC50 is reported as 0.03 µg/mL.
B6 gave an EC50 of 0.02 µg/mL.
B7 was tested, and the EC50 was 0.32 µg/mL.
B8: binds.

What follows are binders tested against T1, prefusion stabilized SARS-CoV-2 S … (assay: ELISA, coated S ectodomain [cont'd]).
With B9 the EC50 was 0.25 µg/mL.
Work on B10 yielded an EC50 of 0.06 µg/mL.
Binder B11 has an EC50 of 0.04 µg/mL.
B12 showed an EC50 of 0.02 µg/mL.
With B13 the EC50 was 0.02 µg/mL.
B14 was tested, and the EC50 was 0.22 µg/mL.
With B15 the EC50 was 0.04 µg/mL.
Binder B16 has an EC50 of 0.04 µg/mL.

Molecular target: T1, prefusion stabilized SARS-CoV-2 S …
Assay: ELISA, coated S ectodomain [cont'd]
Remark: another data set of the same source
With B17 the EC50 was 0.33 µg/mL.
B18 gave an EC50 of 0.02 µg/mL.
For B19, the EC50 was 0.05 µg/mL.
In the case of B20, the EC50 is reported as 0.06 µg/mL.
B21 was tested, and the EC50 was 0.05 µg/mL.
Binder B22 has an EC50 of 0.07 µg/mL.
